T1: mouse CD47 (mouse, UniProt Q61735 19-303)
T1 construct: whole, on cells; also called CD47 on mouse RBCs; CD47 on 4T1 cells
T1 sequence (looked up): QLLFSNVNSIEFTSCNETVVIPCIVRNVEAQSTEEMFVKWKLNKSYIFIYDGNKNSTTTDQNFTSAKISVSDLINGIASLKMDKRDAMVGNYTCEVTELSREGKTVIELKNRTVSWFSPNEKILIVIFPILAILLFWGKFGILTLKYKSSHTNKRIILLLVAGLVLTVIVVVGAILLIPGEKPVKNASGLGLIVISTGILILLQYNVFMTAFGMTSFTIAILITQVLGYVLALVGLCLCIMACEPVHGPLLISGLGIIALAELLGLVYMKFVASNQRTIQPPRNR

B1: Clone 1.1 (hum01 IgG1 N297Q) (antibody)
heavy: QVQLQESGPGLVKPSQTLSLTCTVSGYTFTNYYVFWVRQARGQRLEWIGDINPVNGDTNFNEKFKNRVTISADKSISTAYLQWSSLKASDTAMYYCARGGYTMDYWGQGTLVTVSSASTKGPSVFPLAPSSKSTSGGTAALGCLVKDYFPEPVTVSWNSGALTSGVHTFPAVLQSSGLYSLSSVVTVPSSSLGTQTYICNVNHKPSNTKVDKKVEPKSCDKTHTCPPCPAPELLGGPSVFLFPPKPKDTLMISRTPEVTCVVVDVSHEDPEVKFNWYVDGVEVHNAKTKPREEQYQSTYRVVSVLTVLHQDWLNGKEYKCKVSNKALPAPIEKTISKAKGQPREPQVYTLPPSR
light: DIVMTQTPLSLPVTPGEPASISCRSSQSLVHSNGNTYLHWYQQKPGKAPKLLIYKVSYRFSGVPDRFSGSGSGTDFTLKISRVEAEDVGVYYCSQNTHVPRTFGQGTKVEIKRTVAAPSVFIFPPSDEQLKSGTASVVCLLNNFYPREAKVQWKVDNALQSGNSQESVTEQDSKDSTYSLSSTLTLSKADYEKHKVYACEVTHQGLSSPVTKSFNRGEC
notes: Fc mutant of Clone 1, IgG1 N297Q; also called Cl 1.1
B2: Clone 13.1 (hum13 IgG1 N297Q) (antibody)
heavy: EVQLVQSGAEVKKPGESLRISCKGSGYTFTNYYVFWIRQSPSRGLEWLGDINPVNGDTNFNEKFKNRVTITADKSTSTAYMELSSLRSEDTAVYYCARGGYTMDYWGQGTLVTVSSASTKGPSVFPLAPSSKSTSGGTAALGCLVKDYFPEPVTVSWNSGALTSGVHTFPAVLQSSGLYSLSSVVTVPSSSLGTQTYICNVNHKPSNTKVDKKVEPKSCDKTHTCPPCPAPELLGGPSVFLFPPKPKDTLMISRTPEVTCVVVDVSHEDPEVKFNWYVDGVEVHNAKTKPREEQYQSTYRVVSVLTVLHQDWLNGKEYKCKVSNKALPAPIEKTISKAKGQPREPQVYTLPPSR
light: B1 light
notes: Fc mutant of Clone 13, IgG1 N297Q

Columns and labels:
mouse CD47 = target: T1, mouse CD47; assay: cell-based ELISA on mouse 4T1 cells, apparent Kd
Protocol: (§1) OV10 cells are grown in IMDM medium containing 10% heat inactivated fetal bovine serum (BioWest; S01520) and 4T1 cells are grown in RMPI medium containing 10% heat inactivated fetal bovine serum (BioWest; S01520). One day before assay, 3×10⁴ cells are plated in 96 well cell bind plates (Corning #3300, VWR #66025-626) so that they are 95-100% confluent at the time of assay. Cells are washed and various concentrations of purified antibodies added in either IMDM or RPMI at 37° C. for 1 hour in […]. Cells are then washed with media and incubated for an additional hour at 37° C. with HRP labeled secondary anti-human antibody (Promega) diluted 1/2500 in media. Cells are washed three times with PBS, and the peroxidase substrate 3,3′,5,5′-tetramethylbenzidine is added (Sigma; Catalog #T4444). Reactions are terminated by the addition of HCl to 0.7N, and absorbance at 450 nm is determined using a Tecan model Infinite M200 plate reader. The apparent binding affinities of these clones to human and mouse cells is determined by non-linear fits (Prism GraphPad software). […] Agglutination of human RBCs is assessed following incubation of human RBCs with various concentrations of humanized blocking only clones. Blood is diluted (1:50) and washed 3 times with PBS/EDTA/BSA. RBCs are added to U-bottomed 96 well plates with equal volumes of the antibodies (75 μl) and incubated for 3 hrs at 37° C. and overnight at 4° C.

human CD47 [1] = target: T2, human CD47 (human, UniProt Q08722 19-323); assay: cell-based ELISA on human OV10 cells, apparent Kd
T2 construct: whole, on cells; also called CD47 on human RBCs; CD47 on OV10 cells
Protocol: as §1

human CD47 [2] = target: T2, human CD47; assay: flow cytometry on human RBCs, apparent Kd, non-linear fit
Protocol: (§2) RBCs are incubated for 60 minutes on ice with tissue culture supernatants containing the secreted humanized antibodies at a concentration of 10 ng/ml in a solution of phosphate buffered saline, pH 7.2, 2.5 mM EDTA (PBS+E), or with various concentrations of purified antibodies. Cells are then washed with cold PBS+E, and incubated for an additional hour on ice with FITC labeled donkey anti-human antibody (Jackson Immuno Research Labs, West Grove, Pa.; Catalogue #709-096-149) in PBS+E. Cells are then washed with PBS+E, and antibody binding is analyzed using a BD FACSAria Cell Sorter (Becton Dickinson) or a C6 Accuri Flow Cytometer (Becton Dickinson). Antibody binding is quantitated by comparison of mean fluorescence values relative to that of chimeric antibody >VxP037-01LC (SEQ ID NO:7))/>VxPO37-01HC (SEQ ID NO:57). The mean fluorescence value for each antibody is divided by the mean fluorescence value for the chimeric antibody.

human CD47 [3] = target: T2, human CD47; assay: flow cytometry on human RBCs, non-linear fit of median fluorescence
Protocol: as §2

T2 sequence (Q08722 19-323): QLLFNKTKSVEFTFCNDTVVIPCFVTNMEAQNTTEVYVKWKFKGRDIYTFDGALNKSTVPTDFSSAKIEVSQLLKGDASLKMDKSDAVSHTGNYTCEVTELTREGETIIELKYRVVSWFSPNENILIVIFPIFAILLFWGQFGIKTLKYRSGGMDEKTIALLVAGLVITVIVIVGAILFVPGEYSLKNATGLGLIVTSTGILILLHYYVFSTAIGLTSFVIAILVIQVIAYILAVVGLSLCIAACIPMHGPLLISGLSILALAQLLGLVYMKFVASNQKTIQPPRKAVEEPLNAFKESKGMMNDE

Row | Binder | Kd (mouse CD47) | Kd (human CD47 [1]) | Kd (human CD47 [2]) | Kd (human CD47 [3])
1 | B1 | 0.132 nM | 0.148 nM | 2.04 nM | 0.307 µg/mL
2 | B2 | 0.0867 nM | 0.0886 nM | 1.21 nM | 0.183 µg/mL

— patent US20150274826A1 (ARCH ONCOLOGY, published 2015)
